B1: LINE1-mini (parent)
chain: GGCAGAGCUCAACACAGCGUGGCAAAGUGGCUGUGGCUAGACUGCC

Variants of: B1
Assay: self-cleavage, relative activity (ratio to wild type); higher = more cleavage; in vitro, sequencing; the parent is a self-cleaving ribozyme

Row | Variant | self-cleavage
1 | C10G A14U | 0.05
2 | A11C G33A | 0.04
3 | A11C G33C | 0.02
4 | A11C G33U | 0.04
5 | C10U C23A | 0.43
6 | C10U C23G | 0.26
7 | C10U C23U | 0.43
8 | A11C G22U | 0.07
9 | A11C G22C | 0.04
10 | A11C G22A | 0.12
11 | A11C U43G | 0.03
12 | A11C U43C | 0.02
13 | A11C U43A | 0.01
14 | C10U G17U | 0.33
15 | C10U G17A | 0.34
16 | C10U G17C | 0.61
17 | C10G U28G | 0.08
18 | C10G U28A | 0.11
19 | C10G U28C | 0.12
20 | A11C A39G | 0.03
21 | A11C A39C | 0.02
22 | A11C A39U | 0.03
23 | C10U A41U | 0.16
24 | C10U A41C | 0.03

Row | Variant | self-cleavage
25 | C10U A41G | 0.07
26 | C10U C18G | 0.22
27 | C10U C18U | 0.34
28 | C10U C18A | 0.28
29 | C10G G40A | 0.01
30 | C10G G40C | 0.02
31 | C10G G40U | 0.02
32 | C10U G33U | 0.04
33 | C10U G33A | 0.05
34 | C10U G33C | 0.04
35 | C10U G40A | 0.02
36 | C10U G40U | 0.06
37 | C10U G40C | 0.04
38 | A11C G36C | 0.03
39 | A11C G36U | 0.01
40 | A11C G36A | 0.04
41 | C10U G21A | 0.68
42 | C10U G21U | 0.33
43 | C10U G21C | 0.19
44 | C10G C15U | 0.09
45 | C10G C15G | 0.03
46 | C10G C15A | 0.04
47 | A11C C42G | 0.03
48 | A11C C42A | 0.02

Row | Variant | self-cleavage
49 | A11C C42U | 0.02
50 | C10G G22A | 0.13
51 | C10G G22U | 0.11
52 | C10G G22C | 0.12
53 | C10G A25U | 0.1
54 | C10G A25C | 0.1
55 | C10G A25G | 0.08
56 | C10G C13U | 0.04
57 | C10G C13G | 0.08
58 | C10G C13A | 0.03
59 | C10U U43A | 0.04
60 | C10U U43G | 0.19
61 | C10U U43C | 0.03
62 | A11C U34C | 0.04
63 | A11C U34A | 0.02
64 | A11C U34G | 0.04
65 | C10G G19U | 0.11
66 | C10G G19A | 0.1
67 | C10G G19C | 0.06
68 | A11G A26C | 0.03
69 | A11G A26G | 0.04
70 | A11C G44A | 0.06
71 | A11C G44U | 0.03
72 | C10G G35U | 0.04

Row | Variant | self-cleavage
73 | C10G G35C | 0.02
74 | C10G G35A | 0.03
75 | C10U A14C | 0.05
76 | C10U A14U | 0.14
77 | C10U A14G | 0.22
78 | C10U G19U | 0.21
79 | C10U G19C | 0.24
80 | C10U G19A | 0.32
81 | C10U U28G | 0.23
82 | C10U U28A | 0.16
83 | C10U U28C | 0.13
84 | C10U U34A | 0.14
85 | C10U U34G | 0.32
86 | C10U U34C | 0.08
87 | C10G A16C | 0.02
88 | C10G A16U | 0.06
89 | C10G A16G | 0.06
90 | A11C U38C | 0.04
91 | A11C U38G | 0.02
92 | A11C U38A | 0.02
93 | A11G A14C | 0.02
94 | A11G A14U | 0.03
95 | A11G A14G | 0.02
96 | A11C G17A | 0.03

Row | Variant | self-cleavage
97 | A11C G17U | 0.03
98 | A11C G17C | 0.02
99 | A11C C18A | 0.02
100 | A11C C18U | 0.04
101 | A11C C18G | 0.05
102 | C10U G29C | 0.2
103 | C10U G29U | 0.39
104 | C10U G29A | 0.18
105 | C10U C37A | 0.02
106 | C10U C37U | 0.02
107 | C10U C37G | 0.02
108 | A11C G27C | 0.04
109 | A11C G27U | 0.05
110 | A11C G27A | 0.11
111 | A11C A16G | 0.05
112 | A11C A16U | 0.02
113 | A11C A16C | 0.01
114 | A11C A26G | 0.05
115 | A11C A26U | 0.11
116 | A11C A26C | 0.03
117 | A11C G35C | 0.03
118 | A11C G35A | 0.03
119 | A11C G35U | 0.02
120 | C10G G33C | 0.02

Row | Variant | self-cleavage
121 | C10G G33A | 0.03
122 | C10G G33U | 0.02
123 | A11C G40U | 0.02
124 | A11C G40A | 0.02
125 | A11C G40C | 0.04
126 | C10U U20A | 0.18
127 | C10U U20C | 0.28
128 | C10U U20G | 0.18
129 | A11C G30C | 0.04
130 | A11C G30U | 0.05
131 | A11C G30A | 0.08
132 | A11C C31G | 0.01
133 | A11C C31A | 0.02
134 | A11C C31U | 0.03
135 | C10U C42U | 0.1
136 | C10U C42G | 0.05
137 | C10U C42A | 0.05
138 | C10G U34C | 0.04
139 | C10G U34G | 0.03
140 | C10G U34A | 0.03
141 | A11C G19C | 0.08
142 | A11C G19A | 0.05
143 | A11C G19U | 0.04
144 | C10U A11C | 0.05

Row | Variant | self-cleavage
145 | C10U A11G | 0.05
146 | C10U A11U | 0.09
147 | C10G C23A | 0.08
148 | C10G C23U | 0.09
149 | C10G C23G | 0.07
150 | C10G G21A | 0.18
151 | C10G G21U | 0.14
152 | C10G G21C | 0.07
153 | C10U C31U | 0.54
154 | C10U C31A | 0.13
155 | C10U C31G | 0.05
156 | C10G C45G | 0.02
157 | C10G C45U | 0.14
158 | C10G C45A | 0.07
159 | C10U G44A | 0.15
160 | C10U G44C | 0.16
161 | C10U G44U | 0.13
162 | A11G A25U | 0.02
163 | A11G A25G | 0.05
164 | A11G A25C | 0.03
165 | C10G G30A | 0.21
166 | C10G G30C | 0.2
167 | C10G G30U | 0.22
